# Experimental data as given in IntAct's records for PubMed 21252943.
# B1: E3 ubiquitin-protein ligase RNF4 (Rattus norvegicus (Rat)), O88846 (parent)
# chain: MSTRNPQRKRRGGAVNSRQTQKRTRETTSTPEISLEAEPIELVETVGDEIVDLTCESLEPVVVDLTHNDSVVIVEERRRPRRNGRRLRQDHADSCVVSSDDEELSKDKDVYVTTHTPRSTKDEGTTGLRPSGTVSCPICMDGYSEIVQNGRLIVSTECGHVFCSQCLRDSLKNANTCPTCRKKINHKRYHPIYI
# Variants of: B1
# Conditions: with sumo2_human SUMO2, P61956
# sumo2_human SUMO2, P61956, sequence (P61956 whole entry): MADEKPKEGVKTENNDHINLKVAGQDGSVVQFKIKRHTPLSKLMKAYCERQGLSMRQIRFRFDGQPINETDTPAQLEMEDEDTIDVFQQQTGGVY
row,Variant,effect of a mutation on the interaction
1,I40A,disrupting interaction
2,V51A,disrupting interaction
3,L53A,disrupting interaction
4,L42A,disrupting interaction
5,V43A,disrupting interaction
6,I50A,disrupting interaction

# Results, then the variant that gave them:
row,effect of a mutation on the interaction,Variant
1,disrupting interaction,V61A
2,disrupting interaction,I73A
3,disrupting interaction,V71A
4,disrupting interaction,V74A
5,disrupting interaction,V72A
6,disrupting interaction,V63A
7,disrupting interaction,V62A
